# Reference: patent KR20230010676A
# Biological target: SARS-CoV-2 스파이크 D19 (VSV 슈도바이러스) (SARS-CoV-2) (UniProt P0DTC2)
# Assay: cell-based or functional assay
substance,measurement,value
S2D106-LS (antibody),"EC50 (neutralisation, interpolated)",3.6 ng/mL
same,"EC90 (neutralisation, interpolated)",15.4 ng/mL
same,IC50 (neutralisation),3.38 ng/mL
